One molecule from patent US20180179276A1 (NEURIMMUNE, published 2018) can be followed below.

The test has as its target pathological Aβ deposits in a human brain with Alzheimer's disease (human, UniProt P05067 672-713). In words: not described (human Alzheimer brain tissue).

Chain of pathological Aβ deposits in a human brain with Alzheimer's disease (P05067 672-713): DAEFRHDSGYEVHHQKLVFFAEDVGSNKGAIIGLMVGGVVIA

B1: antibody NI-203.26C11 (constant region as tested not stated) (antibody, V domains shown)
VH: QVQLQESGPGLVKPSQTLSLTCTVSGGSISSGNYYWTWIRQPAGKGLEWIGHIYSSGTTNYNPSLESRVTISVDTSKNQFSLSLNSVTAADTAVYYCARPLATVPDAFNIWGQGTMVTVSS
VL: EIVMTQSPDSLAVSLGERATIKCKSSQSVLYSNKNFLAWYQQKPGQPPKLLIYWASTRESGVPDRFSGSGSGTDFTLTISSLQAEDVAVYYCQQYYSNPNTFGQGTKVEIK
notes: also called anti-hIAPP antibody
As for B1, the binding result is “no binding”.
